± gives the standard deviation of the averaged measurements.
Experiments:
[1] = test system: VchCAST RNA-guided transposition machinery (E. coli BL21(DE3) host, lacZ target); assay: relative integration efficiency (T-LR orientation) vs wild-type transposon end (log2 (normalized fold change)); transposon end mutated: right end (5 bp flank + 75 bp right end); higher = more efficient transposition
How it was run: (§1)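 Relative integration efficiency is a fold change of output over input barcode abundance, normalised to reference barcodes and log-transformed. Input plasmids and genomic integration junctions were PCR-amplified and Illumina-sequenced from E. coli BL21(DE3) co-transformed with a T7-driven effector plasmid and pUC57 donor pools of 1549 left-end or 1849 right-end transposon variants. Plating was done with 0.1 mM IPTG at 37°C for 18 h, with two biological output replicates and four reference barcodes.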

[2] = test system: VchCAST RNA-guided transposition machinery (E. coli BL21(DE3) host, lacZ target); assay: relative integration efficiency (T-RL orientation) vs wild-type transposon end (log2 (normalized fold change)); transposon end mutated: right end (5 bp flank + 75 bp right end); higher = more efficient transposition
How it was run: as §1

| Sequence | relative integration efficiency (log2) [1] | relative integration efficiency (log2) [2] |
| --- | --- | --- |
| ACATTTGTTGATACAACCATATATTGATATCTCCAACCATAAAGTGATATTTATCAGTGGGTATTTAACTATAACGCTCTGATCATAGTCAGACCAACATTGCTACGACCCGTATTCGCACCGACAC | 2.59 ± 0.059 | -0.927 ± 0.29 |
| ACATTTGTTGATACAACCATATATTGATATCTCCAACCATAAGTTGATATTTTTCACAACCATAAAATGATAATTACTCTGATCATAGTCAGACCAACATTGCTACGACCCGTATTCGCACCGACAC | -0.448 ± 0.2 | -0.279 ± 0.084 |
| ACATTTGTTGATACAACCATATATTGATATCTCCAACCATAAGTTGATATTTTTCACAACCATAAAGTGATATTTACTCTGATCATAGTCAGACCAACATTGCTACGACCCGTATTCGCACCGACAC | -0.0291 ± 0.26 | -0.225 ± 0.017 |
| ACATTTGTTGATACAACCATATATTGATATCTCCAACCATAAGTTGATATTTTTCACAACCATAAGTTGATATTTTCTCTGATCATAGTCAGACCAACATTGCTACGACCCGTATTCGCACCGACAC | -0.31 ± 0.26 | -0.0557 ± 0.027 |
| ACATTTGTTGATACAACCATATATTGATATCTCCAACCATAAGTTGATATTTTTCACAACCATATATTGATATCTCCTCTGATCATAGTCAGACCAACATTGCTACGACCCGTATTCGCACCGACAC | 0.0875 ± 0.82 | -0.17 ± 0.037 |
| ACATTTGTTGATACAACCATATATTGATATCTCCAACCATAAGTTGATATTTTTCACACCCATAAATTGATAATTACTCTGATCATAGTCAGACCAACATTGCTACGACCCGTATTCGCACCGACAC | 0.109 ± 0.44 | -0.491 ± 0.17 |
| ACATTTGTTGATACAACCATATATTGATATCTCCAACCATAAGTTGATATTTTTCACACCCATAAATTGATATTGCCTCTGATCATAGTCAGACCAACATTGCTACGACCCGTATTCGCACCGACAC | -0.216 ± 0.018 | -0.335 ± 0.081 |
| ACATTTGTTGATACAACCATATATTGATATCTCCAACCATAAGTTGATATTTTTCAGTGGGTATTTAACTATAACGCTCTGATCATAGTCAGACCAACATTGCTACGACCCGTATTCGCACCGACAC | 2.468 ± 0.015 | -0.859 ± 0.26 |
| ACATTTGTTGATACAACCATATATTGATATCTCCAACCATATATTGATATCTCTCACAACCATAAAATGATAATTACTCTGATCATAGTCAGACCAACATTGCTACGACCCGTATTCGCACCGACAC | -0.08 ± 0.5 | -0.562 ± 0.043 |
| ACATTTGTTGATACAACCATATATTGATATCTCCAACCATATATTGATATCTCTCACAACCATAAAGTGATATTTACTCTGATCATAGTCAGACCAACATTGCTACGACCCGTATTCGCACCGACAC | 0.0811 ± 0.2 | -0.452 ± 0.1 |
| ACATTTGTTGATACAACCATATATTGATATCTCCAACCATATATTGATATCTCTCACAACCATAAGTTGATATTTTCTCTGATCATAGTCAGACCAACATTGCTACGACCCGTATTCGCACCGACAC | -0.0341 ± 0.43 | -0.571 ± 0.19 |
| ACATTTGTTGATACAACCATATATTGATATCTCCAACCATATATTGATATCTCTCACAACCATATATTGATATCTCCTCTGATCATAGTCAGACCAACATTGCTACGACCCGTATTCGCACCGACAC | -0.402 ± 0.094 | -0.859 ± 0.14 |
| ACATTTGTTGATACAACCATATATTGATATCTCCAACCATATATTGATATCTCTCACACCCATAAATTGATAATTACTCTGATCATAGTCAGACCAACATTGCTACGACCCGTATTCGCACCGACAC | 0.23 ± 0.045 | -0.357 ± 0.067 |
| ACATTTGTTGATACAACCATATATTGATATCTCCAACCATATATTGATATCTCTCACACCCATAAATTGATATTGCCTCTGATCATAGTCAGACCAACATTGCTACGACCCGTATTCGCACCGACAC | -0.162 ± 0.005 | -0.682 ± 0.15 |
| ACATTTGTTGATACAACCATATATTGATATCTCCAACCATATATTGATATCTCTCAGTGGGTATTTAACTATAACGCTCTGATCATAGTCAGACCAACATTGCTACGACCCGTATTCGCACCGACAC | 2.41 ± 0.14 | -1.48 ± 0.31 |
| ACATTTGTTGATACAACCATATATTGATATCTCCACCCATAAATTGATAATTATCACAACCATAAAATGATAATTACTCTGATCATAGTCAGACCAACATTGCTACGACCCGTATTCGCACCGACAC | -0.483 ± 0.35 | -0.253 ± 0.0069 |
| ACATTTGTTGATACAACCATATATTGATATCTCCACCCATAAATTGATAATTATCACAACCATAAAGTGATATTTACTCTGATCATAGTCAGACCAACATTGCTACGACCCGTATTCGCACCGACAC | -0.378 ± 0.45 | -0.345 ± 0.0079 |
| ACATTTGTTGATACAACCATATATTGATATCTCCACCCATAAATTGATAATTATCACAACCATAAGTTGATATTTTCTCTGATCATAGTCAGACCAACATTGCTACGACCCGTATTCGCACCGACAC | 0.056 ± 0.33 | -0.316 ± 0.1 |

| Sequence | relative integration efficiency (log2) [1] | relative integration efficiency (log2) [2] |
| --- | --- | --- |
| ACATTTGTTGATACAACCATATATTGATATCTCCACCCATAAATTGATAATTATCACAACCATATATTGATATCTCCTCTGATCATAGTCAGACCAACATTGCTACGACCCGTATTCGCACCGACAC | -0.00761 ± 0.26 | -0.13 ± 0.1 |
| ACATTTGTTGATACAACCATATATTGATATCTCCACCCATAAATTGATAATTATCACACCCATAAATTGATAATTACTCTGATCATAGTCAGACCAACATTGCTACGACCCGTATTCGCACCGACAC | -0.06 ± 0.4 | -0.315 ± 0.0034 |
| ACATTTGTTGATACAACCATATATTGATATCTCCACCCATAAATTGATAATTATCACACCCATAAATTGATATTGCCTCTGATCATAGTCAGACCAACATTGCTACGACCCGTATTCGCACCGACAC | -0.187 ± 0.16 | -0.348 ± 0.03 |
| ACATTTGTTGATACAACCATATATTGATATCTCCACCCATAAATTGATAATTATCAGTGGGTATTTAACTATAACGCTCTGATCATAGTCAGACCAACATTGCTACGACCCGTATTCGCACCGACAC | 2.29 ± 0.021 | -1.01 ± 0.15 |
| ACATTTGTTGATACAACCATATATTGATATCTCCACCCATAAATTGATATTGCTCACAACCATAAAATGATAATTACTCTGATCATAGTCAGACCAACATTGCTACGACCCGTATTCGCACCGACAC | -0.381 ± 0.46 | -0.537 ± 0.12 |
| ACATTTGTTGATACAACCATATATTGATATCTCCACCCATAAATTGATATTGCTCACAACCATAAAGTGATATTTACTCTGATCATAGTCAGACCAACATTGCTACGACCCGTATTCGCACCGACAC | -0.202 ± 0.54 | -0.6 ± 0.069 |
| ACATTTGTTGATACAACCATATATTGATATCTCCACCCATAAATTGATATTGCTCACAACCATAAGTTGATATTTTCTCTGATCATAGTCAGACCAACATTGCTACGACCCGTATTCGCACCGACAC | 0.281 ± 0.01 | -0.57247 ± 9.5e-05 |
| ACATTTGTTGATACAACCATATATTGATATCTCCACCCATAAATTGATATTGCTCACAACCATATATTGATATCTCCTCTGATCATAGTCAGACCAACATTGCTACGACCCGTATTCGCACCGACAC | 0.439 ± 0.28 | -0.713 ± 0.056 |
| ACATTTGTTGATACAACCATATATTGATATCTCCACCCATAAATTGATATTGCTCACACCCATAAATTGATAATTACTCTGATCATAGTCAGACCAACATTGCTACGACCCGTATTCGCACCGACAC | 0.429 ± 0.13 | -0.617 ± 0.12 |
| ACATTTGTTGATACAACCATATATTGATATCTCCACCCATAAATTGATATTGCTCACACCCATAAATTGATATTGCCTCTGATCATAGTCAGACCAACATTGCTACGACCCGTATTCGCACCGACAC | 0.466 ± 0.081 | -0.524 ± 0.027 |
| ACATTTGTTGATACAACCATATATTGATATCTCCACCCATAAATTGATATTGCTCAGTGGGTATTTAACTATAACGCTCTGATCATAGTCAGACCAACATTGCTACGACCCGTATTCGCACCGACAC | 2.32 ± 0.041 | -1.2 ± 0.17 |
| ACATTTGTTGATACAACCATATTATGATAATTACACCCATAAATTGATAATTATCACACCCATAAATTGATATTGCCTCTGATCATAGTCAGACCAACATTGCTACGACCCGTATTCGCACCGACAC | -0.476 ± 0.63 | -0.2975 ± 0.0027 |
| ACATTTGTTGATACAACCATATTATGATAATTACACCCATATTTTGATAATTATCACACCCATATTTTGATATTGCCTCTGATCATAGTCAGACCAACATTGCTACGACCCGTATTCGCACCGACAC | -0.471 ± 0.23 | -0.5763 ± 0.0022 |
| ACATTTGTTGATACAACCATATTTAGATAATTACACCCATAAATTGATAATTATCACACCCATAAATTGATATTGCCTCTGATCATAGTCAGACCAACATTGCTACGACCCGTATTCGCACCGACAC | -0.623 ± 0.22 | -0.585 ± 0.14 |
| ACATTTGTTGATACAACCATATTTAGATAATTACACCCATATTAAGATAATTATCACACCCATATTAAGATATTGCCTCTGATCATAGTCAGACCAACATTGCTACGACCCGTATTCGCACCGACAC | -1.1 ± 0.36 | -2.27 ± 0.31 |
| ACATTTGTTGATACAACCATATTTTGATAATTACACCCATATTATGATAATTATCACACCCATATTATGATATTGCCTCTGATCATAGTCAGACCAACATTGCTACGACCCGTATTCGCACCGACAC | -0.241 ± 0.0091 | -0.721 ± 0.17 |
| ACATTTGTTGATACAACCATCAAATGATAATTACACCCATACATTGATAATTATCACACCCAATTTAACTATAACGCTCTGATCATAGTCAGACCAACATTGCTACGACCCGTATTCGCACCGACAC | -0.0308 ± 0.27 | -2.9 ± 0.42 |

From the supplement of paper PMC10201428
